Reference: the Human Domainome abundance scans (Beltran et al. 2025)

B1: Glucocorticoid receptor, residues 419 to 494; numbered along this chain, P04150 (parent)
chain: KLCLVCSDEASGCHYGVLTCGSCKVFFKRAVEGQHNYLCAGRNDCIIDKIRRKNCPACRYRKCLQAGMNLEARKTK

Variants of: B1
Test: abundance fitness (aPCA) (normalised: wild type 0, dead -1); higher = more abundant; growth selection in yeast, the domain comes from the species named
Conditions: Homo sapiens

Abundance fitness of substitutions, site by site:
C55: D -1.13 | P -0.757 | Q -0.838 | I -0.801 | Y -0.66 | R -0.929 | H -0.911 | T -0.849 | V -0.739 | W -0.588 | M -1.16 | G -0.814 | K -0.877 | S -0.707 | L -1.1 | F -1.02
D48: V -0.596 | Y -0.139 | I -0.579 | T -0.045 | Q -0.385 | E -0.072 | N 0.024 | R -0.536 | H -0.449 | G -0.334 | K -0.487 | P -0.591 | C -0.529 | A -0.327 | S -0.142 | L -0.437 | W -0.415
P56: A 0 | R -0.076 | K -0.108 | M -0.053 | G -0.085 | V -0.064 | L -0.047 | Q -0.001 | C 0.052 | N 0.013 | I -0.19 | H -0.111 | F -0.003 | T -0.06 | E 0.015 | S -0.035
C58: L -0.789 | G -0.81 | I -0.81 | A -0.935 | F -1 | R -1.04 | E -0.633 | Q -0.768 | K -1.06 | M -0.896 | D -0.872 | H -0.701 | P -0.842
R52: E -0.028 | G -0.016 | L -0.048 | W -0.112 | V -0.056 | I -0.093 | P -0.203 | S -0.12 | T -0.129 | A -0.051 | K -0.03 | M -0.101 | C 0.051
K53: S -0.009 | D 0.083 | M 0.001 | E 0.058 | T -0.024 | Q 0.016 | A 0.014 | F -0.033 | G 0.039 | I -0.091 | W -0.075 | H -0.038 | C -0.263 | L -0.017 | P -0.027 | Y -0.026 | V -0.037 | R -0.015
R51: L -0.031 | P -0.136 | A -0.072 | Q -0.002 | V -0.068 | I -0.134 | G 0.009 | T -0.016 | F 0.051 | N -0.031 | M 0.042 | W -0.083 | C -0.215 | S -0.023
G41: C -0.005 | T -0.04 | D -0.049 | M -0.004 | E -0.043 | R 0.02 | Y -0.123 | W -0.017 | S -0.031 | V -0.051 | I -0.101 | N 0.032 | L -0.013 | Q -0.055 | A -0.016 | K 0.011
C39: V -1 | W -0.992 | I -1 | F -0.603 | Q -0.586 | Y -0.951 | R -0.976 | H -0.575 | N -0.603 | G -0.716 | S -0.927 | T -0.553 | M -0.998 | E -0.641 | D -0.863 | L -0.923 | K -0.787 | P -0.585
L38: S -0.035 | N 0.02 | T -0.035 | Q -0.024 | V 0.058 | P -0.155 | Y -0.035
C45: W -0.932 | H -0.168 | Q -0.558 | Y -0.704 | A -0.797 | L -0.917 | P -1.02 | I -0.948 | F -0.649 | T -0.99 | E -0.762 | R -0.778 | V -0.698 | M -1.18 | K -1.27
I50: V 0.013 | H -0.153 | S 0.015 | P 0.081 | Y -0.143 | T -0.007 | A -0.004 | M 0.055 | L 0.046 | D -0.032 | E -0.028 | G 0.009 | N -0.018 | Q 0.046 | R 0.005 | W -0.02
I47: F -0.449 | E -0.216 | G -0.304 | Q -0.183 | N -0.164 | D -0.072 | C -0.438 | P -0.442 | V 0.015 | R -0.406 | T -0.125 | K -0.267 | W -0.542 | L -0.135 | M -0.143 | S -0.252 | A -0.368 | H -0.304
N54: M -0.064 | K 0.049 | F -0.061 | L -0.021 | Y 0.014 | E -0.025 | P -0.25 | Q -0.006 | V -0.025 | T -0.005 | H 0.011 | S -0.081 | D -0.015 | G -0.104 | A 0.05 | C -0.136 | I 0.014 | R -0.053 | W -0.064
R42: C -0.064 | E 0.011 | M -0.024 | Q 0.127 | H -0.011 | N 0.093 | L 0.012 | Y -0.065 | W -0.077 | F 0.077 | V 0.033 | K 0.106 | D 0.06 | S 0.001 | T 0.036 | A 0.01 | G 0.009 | I -0.062
I46: T 0.029 | P -0.048 | Q 0.064 | A 0.031 | W -0.137 | F 0.087 | H -0.045 | R -0.012 | E -0.009 | C -0.025 | V -0.027 | N -0.002 | L -0.039 | S 0.005 | Y 0.029
A57: E -0.146 | F -0.457 | P -0.247 | N -0.266 | S -0.02 | W -0.669 | T -0.571 | Q -0.195 | L -0.582 | C -0.039 | K -0.06 | G -0.071 | V -0.656 | D -0.182 | M -0.587 | I -0.614
A40: V 0.019 | F -0.088 | R -0.043 | D -0.136 | P -0.066 | L -0.065 | T -0.067 | M -0.058 | I -0.038 | Y -0.032 | C -0.137 | N -0.024 | Q 0.012 | W -0.079 | G -0.04 | H -0.192 | E -0.048
N43: A -0.027 | P -0.575 | S -0.044 | F -0.02 | C -0.193 | E 0.011 | T -0.134 | R -0.052 | Q 0.028 | W -0.056 | D -0.008 | V -0.285 | G -0.024 | K 0.013 | L -0.123 | I -0.233 | Y -0.008
D44: Q -0.026 | F -0.381 | W -0.423 | A -0.014 | P -0.323 | H -0.11 | S -0.08 | V -0.053 | R -0.088 | E 0.032 | I -0.344 | M 0 | Y -0.37 | N -0.073 | C 0.009 | G -0.145 | L -0.189 | K -0.062 | T -0.023
K49: Y -0.077 | H -0.045 | L -0.054 | S -0.037 | N -0.06 | R -0.004 | V 0.024 | P 0.016 | W -0.129 | E -0.097 | C 0.045 | Q -0.033 | D -0.164 | F -0.019 | M -0.021 | T -0.001
